Here are results for one molecule from US20210369842A1 (Genmab, published 2021).

Assay [1] concerns the target T1, Human CD137 (human, UniProt Q07011 24-255).
T1 construct: Amino acids 1-23 are stated as the predicted signal peptide; also called hCD137 wt; 4-1BB
Briefly: flow cytometry on HEK293T-17 cells transfected with human CD137, 1 µg/mL antibody. The method, then:
(§1) 3×10⁶ HEK293T-17 cells were seeded in T75 culture flasks (Greiner Bio-One, cat. no. 658175) in 20 mL RPMI 1640 GlutaMAX medium containing 10% FCS (Biochrom, cat. no. S 0115). After O/N incubation, cells were transiently […] with expression vectors encoding the shuffle constructs or the wild boar, African elephant or human CD137 downstream of a constitutively active human elongation factor-1 alpha (EF-1 alpha) promotor using TransIT®-LT1 Transfection Reagent, Mirus Bio (VWR International, cat. no. 731-0029), according to the manufacturer's instructions. The next day, cells were harvested using 1.5 mL Accutase (Sigma Aldrich, cat. no. A6964) (incubation at 37° C. for 5 min.) and flow cytometry was performed, essentially as described supra, to measure surface expression of the shuffle constructs and the human, African elephant and wild boar CD137 and to measure binding of the antibody clones to the different shuffle constructs. […] Binding of the different CD137 antibody clones to cells expressing the shuffle constructs was measured by incubation of the transduced cells with 1 μg/mL of the antibody clones, followed by APC-labeled AffiniPure F(ab′)2 Fragment (1:50 final dilution; Jackson, cat. no. 109-136-127).
(In general: Flow cytometry measures light scatter and fluorescence of single cells or particles in a stream.)

Assay [2] concerns the target T2, Shuffle 3.
T2 construct: Expressed on transiently transfected HEK293-T17 cells; also called Human CD137 shuffle 3 (amino acids 115-138 of wild boar CD137); shuffle construct 3
T2 receptor chain: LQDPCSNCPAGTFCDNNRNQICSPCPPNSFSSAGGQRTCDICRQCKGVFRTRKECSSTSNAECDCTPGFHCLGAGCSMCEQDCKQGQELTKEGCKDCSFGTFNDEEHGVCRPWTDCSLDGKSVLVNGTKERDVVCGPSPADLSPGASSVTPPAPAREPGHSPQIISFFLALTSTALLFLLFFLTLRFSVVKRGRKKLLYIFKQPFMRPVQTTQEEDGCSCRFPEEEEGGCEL
Put plainly: flow cytometry on transfected HEK293-T17 cells, 1 µg/mL antibody, APC-labeled AffiniPure F(ab')2 fragment as secondary. The method, then:
as §1

The target of assay [3] is T3, Shuffle 2.
T3 construct: Expressed on transiently transfected HEK293-T17 cells; also called Human CD137 shuffle 2 (amino acids 139-161 of wild boar CD137); shuffle construct 2
T3 receptor chain: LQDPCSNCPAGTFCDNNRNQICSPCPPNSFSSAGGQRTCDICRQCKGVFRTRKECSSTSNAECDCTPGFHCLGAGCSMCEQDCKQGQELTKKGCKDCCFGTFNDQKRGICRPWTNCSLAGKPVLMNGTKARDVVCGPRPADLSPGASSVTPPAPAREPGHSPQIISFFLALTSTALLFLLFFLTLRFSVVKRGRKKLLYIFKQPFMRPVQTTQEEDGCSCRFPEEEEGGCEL
The assay is described as above. The method, then: as §1

Assay [4] has as its target T4, Shuffle 4.
T4 construct: Expressed on transiently transfected HEK293-T17 cells; also called Human CD137 shuffle 4 (amino acids 89-114 of wild boar CD137); shuffle construct 4
T4 receptor chain: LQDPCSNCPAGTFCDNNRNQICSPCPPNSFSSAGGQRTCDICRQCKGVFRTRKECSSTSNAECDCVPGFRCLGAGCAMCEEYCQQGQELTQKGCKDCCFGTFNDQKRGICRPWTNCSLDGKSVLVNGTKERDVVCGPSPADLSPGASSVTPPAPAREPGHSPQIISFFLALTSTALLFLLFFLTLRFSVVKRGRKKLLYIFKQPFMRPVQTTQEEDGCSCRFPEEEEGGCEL
Described as above. The method, then:
as §1

The target in assay [5] is T5, Shuffle 1.
T5 construct: Expressed on transiently transfected HEK293-T17 cells; also called Human CD137 shuffle 1 (amino acids 162-186 of wild boar CD137); shuffle construct 1
T5 receptor chain: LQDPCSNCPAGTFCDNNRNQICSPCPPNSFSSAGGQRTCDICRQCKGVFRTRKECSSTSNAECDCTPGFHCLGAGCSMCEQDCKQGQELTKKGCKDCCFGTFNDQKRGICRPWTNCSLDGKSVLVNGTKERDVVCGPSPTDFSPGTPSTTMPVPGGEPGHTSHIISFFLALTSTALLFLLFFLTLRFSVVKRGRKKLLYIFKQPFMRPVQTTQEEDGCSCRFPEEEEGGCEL
The description is as above. The method, then: as §1

Assay [6] deals with T6, Wild boar (Sus scrofa) CD137 (wild boar (Sus scrofa)).
T6 construct: Expressed on transfected HEK293T-17 cells; Amino acids 1-23 are stated as the predicted signal peptide; also called wild boar CD137
T6 chain: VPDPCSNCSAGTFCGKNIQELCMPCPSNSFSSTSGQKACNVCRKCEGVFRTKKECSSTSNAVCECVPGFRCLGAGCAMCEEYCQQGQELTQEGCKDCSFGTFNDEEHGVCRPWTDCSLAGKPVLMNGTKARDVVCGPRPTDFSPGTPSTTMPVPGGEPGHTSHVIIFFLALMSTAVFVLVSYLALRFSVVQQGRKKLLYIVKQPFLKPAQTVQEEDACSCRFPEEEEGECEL
Briefly: flow cytometry on transfected HEK293T-17 cells. As for the experimental part: as §1

The target of assay [7] is T7, Human CD137 shuffle 5 (amino acids 48-88 of African elephant CD137) (human CD137 with an African elephant …, UniProt Q07011 24-255).
T7 construct: also called shuffle construct 5
T7 chain: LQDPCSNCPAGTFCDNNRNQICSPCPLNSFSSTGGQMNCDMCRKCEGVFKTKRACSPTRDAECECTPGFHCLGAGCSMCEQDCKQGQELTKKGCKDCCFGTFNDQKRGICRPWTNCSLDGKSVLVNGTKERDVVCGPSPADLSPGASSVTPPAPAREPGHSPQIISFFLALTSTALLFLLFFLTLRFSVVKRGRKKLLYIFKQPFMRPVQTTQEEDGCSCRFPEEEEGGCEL
Put plainly: flow cytometry on transfected HEK293T-17 cells. As for the experimental part: as §1

The target of assay [8] is T8, African elephant (Loxodonta africana) CD137 (African elephant (Loxodonta africana)).
T8 construct: Expressed on transfected HEK293T-17 cells; Amino acids 1-23 are stated as the predicted signal peptide; also called elephant CD137
T8 chain: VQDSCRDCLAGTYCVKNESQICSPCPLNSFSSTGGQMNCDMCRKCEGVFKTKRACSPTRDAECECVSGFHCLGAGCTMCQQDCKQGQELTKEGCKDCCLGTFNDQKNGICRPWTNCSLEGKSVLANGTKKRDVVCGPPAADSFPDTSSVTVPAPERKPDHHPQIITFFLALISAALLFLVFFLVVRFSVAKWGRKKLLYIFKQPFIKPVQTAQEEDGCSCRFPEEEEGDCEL
Put plainly: flow cytometry on transfected HEK293T-17 cells. The method, then: as §1

B1: CD137-009 (chimeric rabbit/human CD137 antibody) (antibody, V domains shown)
VH: QSLEESGGRLVTPGTPLTLTCTVSGFSLNDYWMSWVRQAPGKGLEWIGYIDVGGSLYYASWAKGRFTISRTSTTVDLKMTSLTTEDTATYFCARGGLTYGFDLWGPGTLVTVSS
VL: DIVMTQTPASVSEPVGGTVTINCQASEDISSYLAWYQQKPGQRPKRLIYGASDLASGVPSRFSASGSGTEYALTISDLESADAATYYCHYYATISGLGVAFGGGTEVVVK
notes: also called antibody CD137-009; rabbit anti-CD137-009
For B1, the binding result was “binds” in assay [1]; “binds” in assay [2]; “binds” in assay [3]; “binds” in assay [4]; “binds” in assay [5]; “no binding (tested: 1 µg/mL)” in assay [6]. Also, the binding result in assay [7] and in assay [8] was “no binding (tested: 1 µg/mL)” each time.
